Test results reported in patent US20240150810.

Molecular target: AMC-Ubiquitin, P62979

B1: recombinant USP22 (protein)
chain: MVSRPEPEGEAMDAELAVAPPGCSHLGSFKVDNWKQNLRAIYQCFVWSGTAEARKRKAKSCICHVCGVHLNRLHSCLYCVFFGCFTKKHIHEHAKAKRHNLAIDLMYGGIYCFLCQDYIYDKDMEIIAKEEQRKAWKMQGVGEKFSTWEPTKRELELLKHNPKRRKITSNCTIGLRGLINLGNTCFMNCIVQALTHTPLLRDFFLSDRHRCEMQSPSSCLVCEMSSLFQEFYSGHRSPHIPYKLLHLVWTHARHLAGYEQQDAHEFLIAALDVLHRHCKGDDNGKKANNPNHCNCIIDQIFTGGLQSDVTCQVCHGVSTTIDPFWDISLDLPGSSTPFWPLSPGSEGNVVNGESHVSGTTTLTDCLRRFTRPEHLGSSAKIKCSGCHSYQESTKQLTMKKLPIVACFHLKRFEHSAKLRRKITTYVSFPLELDMTPFMASSKESRMNGQYQQPTDSLNNDNKYSLFAVVNHQGTLESGHYTSFIRQHKDQWFKCDDAIITKASIKDVLDSEGYLLFYHKQFLEYE
- fluorescence signal generated by cleavage of the fluorogenic substrate AMC-Ubiquitin (in vitro deubiquitination assay, time course): fluorescence resulting from the liberation of AMC increased over time in a USP22-dependent manner
